Target: biotinylated E2F-1 peptide symmetrically methylated at R111 and R113
Experiment: BLI

Substance: p100-TSN Tudor domain (biolayer interferometry) (from UniProt Q7KZF4 729-787) (domain or fragment)
- Kd: 12 µM

Source: publication PMC4129656
